Data from patent US20260015631.

System: CyCAST TnsD (with TnsAB, TnsC) (Cyanothece sp. PCC 7425)
Assay: cell_activity
Settings: without TniQ; 0.0006% with TniQ; E. coli

Substance: pTarget with tRNA-Leu
- activity: 0.008 % insertion
